Results published in paper doi:10.1101/2025.05.14.654016, “Phosphatase activity is dispensable for PRL-3-mediated oncogenesis and tumor progression” (bioRxiv, 2025).
One block for each binder: values may come before it.

Legend:
Details in all cases: both partners purified
LSSmGFP-PRL-3.C104D [1] = target: T1, LSSmGFP-PRL-3.C104D (human, UniProt O75365 1-173, C104D); test: co-IP; in vitro, purified proteins: HA-CBS or HA-CBS-mScarlet3 (2.5 μM) on HA-Tag magnetic beads; equimolar PRL-3 or LSSmGFP-PRL3.C104D with 1 mM TCEP, pre-incubated with 50 μM test compounds or DMSO; 25 mM Tris-HCl pH 7.4, 150 mM NaCl, 1% NP-40, 5% glycerol; room temperature
T1 construct: full-length PRL-3 with C104D, joined to LSSmGFP at its N-terminus by a glycine/serine linker; also called FRET donor; source: E. coli BL21 Star DE3, purified (Ni-NTA, TEV cleavage, second Ni-NTA, Superdex 200); not shown: LSSmGFP, N-terminal, kept
T1 sequence (O75365 whole entry C104D): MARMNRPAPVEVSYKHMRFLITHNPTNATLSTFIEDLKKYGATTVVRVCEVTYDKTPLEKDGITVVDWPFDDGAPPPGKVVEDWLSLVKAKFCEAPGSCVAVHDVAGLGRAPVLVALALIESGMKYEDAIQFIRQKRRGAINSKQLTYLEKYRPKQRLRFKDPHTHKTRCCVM

[2] = target: T2, recombinant full-length human PRL-3 (human, UniProt O75365 1-173); test: as above
T2 construct: full-length human PRL-3 cloned into pSKB3 (modified pET-28b with a TEV site); also called purified PRL-3; non-fluorescent PRL-3; source: E. coli BL21 Star DE3, purified (Ni-NTA, TEV cleavage, second Ni-NTA, Superdex 200)
T2 sequence (O75365 whole entry): as the sequence (O75365 whole entry C104D) above, with D104C counted along it

LSSmGFP-PRL-3.C104D [3] = target: T1, LSSmGFP-PRL-3.C104D; test: FRET or BRET; in vitro FRET of purified proteins, LSSmGFP-PRL-3 C104D with increasing concentrations of HA-CBS-mScarlet3; excitation 400 nm, emission 600 nm

binding result (LSSmGFP-PRL-3.C104D [1]): binds
binding result [2]: binds
B1: HA-CBS (CBS domain of CNNM3, residues Y301-D451, with an N-terminal HA tag) (domain or fragment, UniProt Q8NE01-1 301-451, looked up)
chain: YSDLSKGVLRCRTVEDVLTPLEDCFMLDASTVLDFGVLASIMQSGHTRIPVYEEERSNIVDMLYLKDLAFVDPEDCTPLSTITRFYNHPLHFVFNDTKLDAVLEEFKRGKSHLAIVQKVNNEGEGDPFYEVLGLVTLEDVIEEIIRSEILD
notes: also called purified CBS domain; unlabelled HA-CBS; source: E. coli BL21 Star DE3, purified (Ni-NTA, TEV cleavage, second Ni-NTA, Superdex 200); not shown: HA, N-terminal, kept

binding result (LSSmGFP-PRL-3.C104D [3]): binds
binding result [2]: binds
B2: HA-CBS-mScarlet3 (domain or fragment, UniProt Q8NE01-1 301-451, looked up)
chain: B1 chain
notes: CBS domain of CNNM3, residues Y301-D451, joined to mScarlet3 at its C-terminus by a glycine/serine linker; also called FRET acceptor; source: E. coli BL21 Star DE3, purified (Ni-NTA, TEV cleavage, second Ni-NTA, Superdex 200); not shown: HA, N-terminal, kept; mScarlet3, C-terminal, kept
